The values that follow come from patent US20230056856, “COMPOSITIONS AND METHODS FOR TUNABLE REGULATION OF TRANSCRIPTION” (OBSIDIAN THERAPEUTICS, INC., published 2023).

In data set [1] the target is ZFHD1-p65-linker-ecDHFR(R12Y,Y100I) (ZFHD-009) (Artificial). Description: cell_activity; U2OS, GFP MFI 10 uM TMP vs DMSO, 72 h. Here is the method:
(§1) Ligand treatment: Each cell line was plated in 12-well plates at a density of 80,000 cells/well and allowed to adhere overnight. Media was removed and replacement media either with 10 μM Trimethoprim (TMP) or 0.1% DMSO was added. Cells were incubated for 24 hour, 48 hour, and 72 hour timepoints. At each timepoint, cells were removed from the plates with 0.25% trypsin for collection. A 0 hour timepoint was also collected before addition of TMP or DMSO.

Data set [2] addresses ZFHD1-ecDHFR(R12Y,Y100I)-p65 (ZFHD-008) (Artificial). The data set is described as above. As for the experimental part:
as §1

For data set [3], the target named is ZFHD1-p65-ecDHFR(R12Y,Y100I) (ZFHD-005) (Artificial). The data set is described as above. Here is the method:
as §1

In data set [4] the target is ZFHD1-p65-CA2(L156H) (ZFHD-019) (Artificial). Description: cell_activity; ARPE-19, GFP MFI 10 uM ACZ vs DMSO, 48 h; in U2OS ACZ EC50 of payload 1.1 uM (Example 9). As for the experimental part: Cells were cultured in DMEM-F12 media supplemented with 10% FBS.
Ligand treatment: Each cell line was plated at a density of 15,000 cells/well in 6-8 wells of a 24-well plate. Cells were allowed to adhere overnight. […] After 48 hours incubation, cells were removed from the plate with 0.25% trypsin and collected. […] For flow cytometry, samples were washed once with cell staining buffer (Biolegend, San Diego, Calif.), resuspended in cell staining buffer with 1% QSol™ buffer (Intellicyt Corporation, Albuquerque, N. Mex.), and analyzed by flow cytometry.

The target in data set [5] is ZFHD1-p65 (ZFHD-004, constitutive) (Artificial (Homo sapiens/Mus …)). Description: cell_activity; U2OS, constitutive TF; TMP/DMSO ratio only, not regulated by ligand.
Data set [6] addresses ZFHD1-p65-CA2(L156H) (ZFHD-048) (Artificial). As to the kind of experiment: cell_activity; Jurkat, GFP MFI 10 uM ACZ vs DMSO, 48 h.

B1: 8xZFHD1 binding sites of payload ZFHD-007 (dsDNA)
DNA 1: TAATGATGGGCGCACGAGTAATGATGGGCGGACGACTAATGATGGGCGCACGAGTAATGATGGGCGTCTAGCTAATGATGGGCGCTAGAGTAATGATGGGCGGTAGACTAATGATGGGCGCTCCAGTAATGATGGGCG
DNA 2: CGCCCATCATTACTGGAGCGCCCATCATTAGTCTACCGCCCATCATTACTCTAGCGCCCATCATTAGCTAGACGCCCATCATTACTCGTGCGCCCATCATTAGTCGTCCGCCCATCATTACTCGTGCGCCCATCATTA
Take B1: the activity was 5.71 fold in data set [1]; 3.57 fold in data set [2]; 11.4 fold in data set [3]; about 1.9 fold in data set [4]; 0.894 fold in data set [5].

B2: 8xZFHD1 BS payload ZFHD-022 (dsDNA)
DNA 1: TAATGATGGGCGCACGAGTAATGATGGGCGGACGACTAATGATGGGCGCACGAGTAATGATGGGCGTCTAGCTAATGATGGGCGCTAGAGTAATGATGGGCGGTAGACTAATGATGGGCGCTCCAGTAATGATGGGCG
DNA 2: CGCCCATCATTACTGGAGCGCCCATCATTAGTCTACCGCCCATCATTACTCTAGCGCCCATCATTAGCTAGACGCCCATCATTACTCGTGCGCCCATCATTAGTCGTCCGCCCATCATTACTCGTGCGCCCATCATTA
In the case of B2, the activity in data set [6] is about 2.1 fold.
